Patent US20250257099A1 (priority 2022, published 2025)

Legend:
[1] = biological target: MERS-CoV spike (S) protein (MERS-CoV) (UniProt K9N5Q8); assay: cell-based or functional assay
[2] = biological target: SARS-CoV-2 spike (S) glycoprotein (SARS-CoV-2) (UniProt P0DTC2); assay: cell-based or functional assay

Question: Which IC50, plaque-neutralization test, MERS-CoV infection of Vero E6 cells [1] does the source give for “EK1 lipopeptide (EK1C4), cholesterol-conjugated” here?
Answer: 8 nM

Question: And the IC50, plaque-neutralization test, SARS-CoV-2 infection of Vero E6 cells [2]?
Answer: 80 nM
